Measurements from the supplement of paper PMC9170038.

System: MS2 coat protein
Assay: apparent KD of MS2 coat protein; designed switch direction (-1 OFF switch, 1 ON switch): -1; higher = weaker reporter binding
Outline: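 The buffer was Tris-HCl pH 7.5 with KCl, MgCl2, BSA, DTT, tRNA and Tween-20. In it, SNAP-549-labelled MS2 coat protein was titrated in doubling steps from 0.7 or 1.5 nM to 3 µM over chip-bound RNA switches transcribed by stalled E. coli RNA polymerase on Illumina chips. Apparent KD is the per-design median over clusters of curve fits to normalised fluorescence.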

[1] = Eterna round: R95, input ligand: FMN 200 uM
[2] = Eterna round: R95, input ligand: microRNA oligo, concentration not stated
[3] = Eterna round: R95, input ligand: none
[4] = input ligand: microRNA oligo, concentration not stated

Sequence	apparent KD of MS2 coat protein (input ligand: FMN 200 uM) [µM]	apparent KD of MS2 coat protein (input ligand: none) [µM]	apparent KD of MS2 coat protein [2] [µM]	apparent KD of MS2 coat protein [4] [µM]	also measured
AUAUUGUGAGGAUAUGAACUUAGUAUCGAAAGAUACUAAGUACAGAAGGCACAUGAGGAUCACCCAUGUUUCUC [Long static hairpin v2] (Eterna round: R97, puzzle: Exclusion 4)	0.418	0.0857			
GGUCAAGAACAGAUCCGCGCUGUCCUUGACCGCUCAUUUACAUGAGGAUCACCCAUGUUUUUUGCUUGUCUUGUUAC [Tixegeis] (puzzle: Sensor v3, turn-off variant 2)			0.0967		apparent KD of MS2 coat protein [1]: 0.0174 µM; apparent KD of MS2 coat protein [3]: 0.0165 µM
AAGCUCACACGCUCGUCUUACAUGAGGAUCACCCAUGUCGCCGAGCUUCACAGGCUGAAGCUCAUAUAGGGUCAUGA [Eternabot (L2) Solution 26] (Eterna round: R97, puzzle: Sensor, turn-off variant 1)	0.0851	0.0917			
GCUUUUGGGCAAGGAUAUCCUGCGCGGUUCUGGUUCGUGUCUGUCACAUGAGGAUCACCCAUGUGGGAGAAGGUGCCUGUGGUG [Design 71] (Eterna round: R96, puzzle: Exclusion NG 2)	0.0381	0.023		0.0169	
CUUUUGUGAGGAUAUUAGUAGUAUAUAAUUGGUGAUAUUGCUGAGAAGGCACAUGAGGAUCACCCAUGUACAAC [JR_Ex4_Sub034] (Eterna round: R97, puzzle: Exclusion 4)	0.369	0.441			
AAAAUGUAAGGAUAUAGCCGGAACCCAGGGUUUGGACCCGGCUAGAAGGUACAUGAGGAUCACCCAUGUAAGAA [Excls4-VII] (puzzle: Exclusion 4)			0.0174		
ACUCGACAUGAGGAUCACCCAUGUGAGGAUAUGGCCUGUAUGGCGUGAGCUGGCUCUGUCAGAAGGCGCGUGGG [salish99_ex1_r4_046] (Eterna round: R97, puzzle: Exclusion 1)	0.0555	0.059			
GUAAAGGUAGGAUAUACGAAGAAAAAGGGUAGAAUAAUAACACAUGAGGAUCACCCAUGUAGAAGGACCAAAGG [Mat - Exclusion 2 - Mod of my Tesla design - D8] (puzzle: Exclusion 2)			0.0264		apparent KD of MS2 coat protein [1]: 0.0498 µM; apparent KD of MS2 coat protein [3]: 0.0238 µM
ACAUGAGGAUCACCCAUGUACAGGGUUUAGUUUCAUCGUUUGAAGGAUAUACUCCGUUAGUUGUCGUAGAAGGUCACAGUUUGG [JR_ExcNG3_Sub007] (Eterna round: R96, puzzle: Exclusion NG 3)	0.179	0.178		0.128	
UGCGGUAGAGGAUAUACGUAGAAUUAGGUUCAUGUAAAACUACAUGAGGAUCACCCAUGUAGAAGGCUAUCGCU [JL-ex2-4.30 Eli mod] (Eterna round: R97, puzzle: Exclusion 2)	0.0854	0.0212			
CAAACGGCUUUAGGAUAUGACUUUUCGUACAUGAGGAUCACCCAUGUCAGGACUGGUGGUGCGAGUCAGAAGGAGAGUCAAGAA [Eternabot solution 30] (Eterna round: R96, puzzle: Exclusion NG 2)	0.0943	0.176		0.0992	
AUUAGCGUAGGAUAUUGAUACAUGUACAUGAGGAUCACCCAUGUGAGGUGAGUCUUCGAUUAAGAAGGGCGCAGAA [EX5 #39] (Eterna round: R97, puzzle: Exclusion 5)	0.0826	1.21			
CCUUUGUCAGGAUAUCAGAAAACGCUCGUAGGGAGCGCAAAUGAGAAGGGACAUGAGGAUCACCCAUGUAAAGA [Edmareen] (puzzle: Exclusion 4)			0.0451		apparent KD of MS2 coat protein [1]: 0.219 µM; apparent KD of MS2 coat protein [3]: 0.0603 µM
GUCCAGUUAGGAUAUCAAUGCCACAACAUGAGGAUCACCCAUGUUUGGGUCCCUCACCAAUGAGAAGGAACGGGAC [Esteenedso] (puzzle: Exclusion 5)			0.0321		
GACCGGACGUGGUCUGGUAACAUGAGGAUCACCCAUGUUGGUCUAAGAACAUGCCUUUUGCACGCUCGUCUUAUAUU [JR_SV3TOV1_Sub062] (puzzle: Sensor v3, turn-off variant 1)			0.0296		apparent KD of MS2 coat protein [1]: 0.0662 µM; apparent KD of MS2 coat protein [3]: 0.0805 µM
UUUUUACAUGAGGAUCACCCAUGUCAGGAUAUCAUUAUAUUUUAUUAUUUUAUUUAUAUGAGAAGGGACUAUUA [My solution] (Eterna round: R96, puzzle: Exclusion 1)	0.127	0.105		0.0792	
UUCACGUCAGGAUAUCCAAAGUUCCGAAAUAACGGUACUUUGGAGAAGGGACAUGAGGAUCACCCAUGUCCUCG [LRO-Excl4-17-Nando 22 Mod] (Eterna round: R97, puzzle: Exclusion 4)	0.0403	0.022			
UUAAUUAAUGUCAGGAUAUCUAGAGCCUCGGCUCUAGAGAAGGGACAUGAGGAUCACCCAUGUCACUCUUAAUU [BmEx4/3-C2] (Eterna round: R97, puzzle: Brourd's mod of Exclusion 4)	0.0195	0.0187			

Sequence	apparent KD of MS2 coat protein (input ligand: FMN 200 uM) [µM]	apparent KD of MS2 coat protein (input ligand: none) [µM]	apparent KD of MS2 coat protein [2] [µM]	apparent KD of MS2 coat protein [4] [µM]	also measured
GAAGAGACAGGAUAUACAUGAGGAUCACCCAUGUGAGUAUGUUGGAGGCGGAGGAGGUGUAGAAGGGUCAAAGA [JR_Exclu3_Sub019] (puzzle: Exclusion 3)			0.0202		
CUGAAAGACGAAGGAUAUCCAGGCGCCGGCGUAGGAGAAGGUCGUCCGGGUGUCCUAGAACUUGAGGAUCACCCAAGUAGAAGA [Mutated MS2 EX1.14] (Eterna round: R96, puzzle: Exclusion NG 1)	0.0368	0.0531		0.0249	
UAUUAUCAAGCAAGAUCCCACAUGAGGAUCACCCAUGUGCUCGUCUUAUUUCUGGCCUUAUUGGUCUCUCGUCUAAU [JR_STOV1_v2_Sub095] (Eterna round: R97, puzzle: Sensor, turn-off variant 1)	0.0258	0.0267			
AAUUAUUUUUGAGGAUAUGGUAGUGAAACACUACCAGAAGGCGGAAUAAACAUGAGGAUCACCCAUGUGAGCCUGAUGCUUAUG [Ex NG1 #46] (Eterna round: R96, puzzle: Exclusion NG 1)				0.0179	
AAGAAACAUGAGGAUCACCCAUGUGAGGAUAUGAAAAAGAAAAUAAAAUAAAUAAUAAUCAGAAGGCACAAAGG [Mat - Mod of Hog D6] (puzzle: Exclusion 1)			0.0444		apparent KD of MS2 coat protein [1]: 0.0431 µM; apparent KD of MS2 coat protein [3]: 0.0373 µM
AUAAUGUCAGGAUAUCAGAAGUUUAACUUCGGUUAAACUUCUGAGAAGGGACAUGAGGAUCACCCAUGUGAUUA [E4/3-B1] (Eterna round: R97, puzzle: Exclusion 4)	0.109	1.33			
ACAUGAGGAUCACCCAUGUGACCACAAUGGCUGAUGUAACAACAGGAUAUUCGUGAAUAUCUAACGAAGAAGGGUUAUGACUGG [Deportation 63 - Jieux - Exclusion NG 3] (Eterna round: R96, puzzle: Exclusion NG 3)				0.0514	
CAGGUGUUAGGAUAUCGGAGAUUGAGGCAGACGGGAAUAUUCGAGAAGGAACAUGAGGAUCACCCAUGUAGUAG [JR_Exclu4_Sub036] (puzzle: Exclusion 4)			0.0239		
AGAUCACAUGAGGAUCACCCAUGUCAGGAUAUCGUCACUGGAGCUGCGGCUCCAGUGACGAGAAGGGACAUAAU [E1/2-A3] (Eterna round: R97, puzzle: Exclusion 1)	0.252	0.326			
UGCAGACGAGGAUAUAAAUUUAAAUACAUGAGGAUCACCCAUGUAUAAAUGUAUUUAAAUUUAGAAGGCGUCUGCU [E5/12-A4] (Eterna round: R97, puzzle: Exclusion 5)	0.5	0.606			
GUUGUUUAUGUAGGAUAUGCCUGGCGUGCCUUUGCAGAAGGACAUGAGGAUCACCCAUGUAACAUGAGGCUCACCCAUGUCGCC [salish99_ExNG1_r04_108] (Eterna round: R96, puzzle: Exclusion NG 1)	0.22	0.16		0.0726	
CAAAUUGCAGGAUAUACUGGGCCAGAGCCAUCGUGUAUUCCACAUGAGGAUCACCCAUGUAGAAGGGCACGUAC [Aqueran] (puzzle: Exclusion 2)			0.0238		
AAGGAACAUGAGGAUCACCCAUGUGAGGAUAUGUGAGAAGGAUUUGAGAAGGAGAGGGACAGAAGGCACUAGGA [JR_Exclu1_Sub081] (puzzle: Exclusion 1)			0.0347		
AAGUACUACAAGCUUCGGGACAUGAGGAUCACCCAUGUUCGUCUUAUUGAUCUAGGUACGCUGACGUACCUAGAUCA [Mat - Sensor v3 - turn-off var 1 - JL Mod - D12] (puzzle: Sensor v3, turn-off variant 1)			0.0594		apparent KD of MS2 coat protein [1]: 0.0149 µM; apparent KD of MS2 coat protein [3]: 0.0147 µM
GGUACUCAAAGAGUACCAAUACGAACAUGAGGAUCACCCAUGUAGGAUAUGCUACUCAAAGAGUAGCAGAAGGACGUGUGCCUU [Far Half Aptamer v4] (Eterna round: R96, puzzle: Exclusion NG 3)				0.0156	
UGAUCUAGCGGAGGAUAUACAUGAGGAUCACCCAUGUAGAUAAGUGUACCGUAGUGCACUAUUGUGUAGAAGGCCGCUAGAUCU [JL ENG2 3.64] (Eterna round: R96, puzzle: Exclusion NG 2)	0.0305	0.0119		0.00935	
UCAAGUAUGUAGGAUAUCGAUGUCCUUGGACAUCGAGAAGGACGUACAUGAGGAUCACCCAUGUAACUUGCAUG [Exclusion 6 - B - 10:e] (Eterna round: R96, puzzle: Exclusion 6)				0.131	
